Values belong to the molecule of their own block, whether it stands above or below them.
Legend:
OST-NLS-mCherry-NRF2 = OST-NLS-mCherry-NRF2 (UniProt Q16236); experiment: pull-down
OST-progerin (human) = OST-progerin (human) (UniProt P02545); experiment: pull-down

interaction relative to WT lamin A (OST-NLS-mCherry-NRF2): 248%
Molecule: HA-progerin (from UniProt P02545-6 1-614) (natural protein)

NRF2 pulled down relative to OST-lamin A (OST-progerin (human)): 142%
B1: FLAG-NLS-NRF2 (natural protein)
chain: MMDLELPPPGLPSQQDMDLIDILWRQDIDLGVSREVFDFSQRRKEYELEKQKKLEKERQEQLQKEQEKAFFAQLQLDEETGEFLPIQPAQHIQSETSGSANYSQVAHIPKSDALYFDDCMQLLAQTFPFVDDNEVSSATFQSLVPDIPGHIESPVFIATNQAQSPETSVAQVAPVDLDGMQQDIEQVWEELLSIPELQCLNIENDKLVETTMVPSPEAKLTEVDNYHFYSSIPSMEKEVGNCSPHFLNAFEDSFSSILSTEDPNQLTVNSLNSDATVNTDFGDEFYSAFIAEPSISNSMPSPATLSHSLSELLNGPIDVSDLSLCKAFNQNHPESTAEFNDSDSGISLNTSPSVASPEHSVESSSYGDTLLGLSDSEVEELDSAPGSVKQNGPKTPVHSSGDMVQPLSPSQGQSTHVHDAQCENTPEKELPVSPGHRKTPFTKDKHSSRLEAHLTRDELRAKALHIPFPVEKIINLPVVDFNEMMSKEQFNEAQLALIRDIRRRGKNKVAAQNCRKRKLENIVELEQDLDHLKDEKEKLLKEKGENDKSLHLLKKQLSTLYLEVFSMLRDEDGKPYSPSEYSLQQTRDGNVFLVPKSKKPDVKKN

NRF2 bound relative to OST-lamin A (OST-progerin (human)): 275%
B2: recombinant HIS6x-NRF2 (natural protein)
chain: B1 chain
